Assay results published in patent US20230285514A1, “STAPLED LACTAM CO-AGONISTS OF THE GLUCAGON AND GLP-1 RECEPTORS” (Merck Sharp & Dohme LLC, priority 2019, published 2023).
*1 amine or outer side, *2 acyl side, *3 side chain or, on linkers, in order; H or OH if unused. Where a SMILES comes first, the peptide text is derived from it. Bridges are numbered along the chain shown (N, C = ends). Where no end group is shown, it is not given here. Side-chain parts run from the residue outwards. [ ]: non-standard residue; d: D form. The star is where a group is joined. γGlu = O=C(O)[C@H](CCC(=O)[*:2])N[*:1]; Met(O2) = CS(=O)(=O)CC[C@H](N)C(=O)O; Palmitoyl = CCCCCCCCCCCCCCCC(=O)*; Nle = CCCC[C@H](N)C(=O)O; Ac4c = NC1(C(=O)O)CCC1; Aib = CC(C)(N)C(=O)O

B1: TP836 (peptide)
peptide: H[Aib]QGTFTSDKSKYLDKRAAEDFVQWL[Nle]DT-NH2
modifications: lactam 16-20; not fully specified (residue 10); printed as HUQGTFTSDK(γEγEC16)SKYLDK*RAAE*DFVQWL-Nle-DT-NH2
B2: TP710 (peptide)
peptide: H[dS]QGTFTSDKSKYLDAKAAQEFVQWLLDT-NH2
modifications: lactam 17-21; not fully specified (residue 10); printed as HsQGTFTSDK(γEγEC16)SKYLDAK*AAQE*FVQWLLDT-NH2
B3: Peptide SEQ ID No. 10 (TP706) (peptide)
peptide: H[dS]QGTFTSDKSKYLDKRAAEDFVQWLLDT-NH2
modifications: lactam 16-20; not fully specified (residue 10); printed as HsQGTFTSDK(γEγEC16)SKYLDK*RAAE*DFVQWLLDT-NH2
B4: TP484 (peptide)
peptide: HXQGTFTSDXSKYLDERAAEDFVKWLLDT
modifications: s = D-Serine at 2; K10 conjugated to γEγE-C16 fatty acid; E*20 and K*24 cyclized to form a lactam containing ring; C-terminal amide
B5: TP848 (peptide)
peptide: H[Aib]QGTFTSDKSKYLD[Aib]KAAQEFVQWL[Met(O2)]DTK(γGlu)-NH2
modifications: lactam 17-21; not fully specified (residue 10); printed as HUQGTFTSDK(γEγEC16)SKYLDUK*AAQE*FVQWL2DTKγE-NH2
B6: TP834 (peptide)
peptide: H[dS]QGTFTSDKSKYLDARAAQDFVKWLLET-NH2
modifications: lactam 24-28; not fully specified (residue 10); printed as HsQGTFTSDK(γEγEC16)SKYLDARAAQDFVK*WLLE*T-NH2
B7: TP840 (peptide)
peptide: H[Aib]QGTFTSDKSKYLD[Aib]KAAQEFVQWL[Nle]DT-NH2
modifications: lactam 17-21; not fully specified (residue 10); printed as HUQGTFTSDK(γEγEC16)SKYLDUK*AAQE*FVQWL-Nle-DT-NH2
B8: TP842 (peptide)
peptide: H[Aib]QGTFTSDKSKYLD[Aib]RAAQDFVKWL[Nle]ET-NH2
modifications: lactam 24-28; not fully specified (residue 10); printed as HUQGTFTSDK(γEγEC16)SKYLDURAAQDFVK*WL-Nle-E*T-NH2
B9: TP485 (peptide)
peptide: H[dS]QGTFTSDKSKYLDERAAKDFVEWLLDT-NH2
modifications: lactam 20-24; not fully specified (residue 10); printed as HsQGTFTSDK(γEγEC16)SKYLDERAAK*DFVE*WLLDT-NH2
B10: TP846 (peptide)
peptide: H[Aib]QGTFTSDKSKYLD[Aib]RAAKDFVEWL[Met(O2)]DTK(γGlu)-NH2
modifications: lactam 20-24; not fully specified (residue 10); printed as HUQGTFTSDK(γEγEC16)SKYLDURAAK*DFVE*WL2DTKγE-NH2
B11: TP707 (peptide)
peptide: H[dS]QGTFTSDKSKYLDARAAKDFVEWLLDT-NH2
modifications: lactam 20-24; not fully specified (residue 10); printed as HsQGTFTSDK(γEγEC16)SKYLDARAAK*DFVE*WLLDT-NH2
B12: TP838 (peptide)
peptide: H[Aib]QGTFTSDKSKYLD[Aib]RAAKDFVEWL[Nle]DT-NH2
modifications: lactam 20-24; not fully specified (residue 10); printed as HUQGTFTSDK(γEγEC16)SKYLDURAAK*DFVE*WL-Nle-DT-NH2
B13: TP844 (peptide)
peptide: H[Aib]QGTFTSDKSKYLDKRAAEDFVQWL[Met(O2)]DTK(γGlu)-NH2
modifications: lactam 16-20; not fully specified (residue 10); printed as HUQGTFTSDK(γEγEC16)SKYLDK*RAAE*DFVQWL2DTKγE-NH2
B14: TP486 (peptide)
peptide: H[Aib]QGTFTSDKSKYLD[Aib]RAAQDFVEWLMKTK(γGlu)-NH2
modifications: lactam 24-28; not fully specified (residue 10); printed as HUQGTFTSDK(γEγEC16)SKYLDURAAQDFVE*WLMK*TKγE-NH2
B15: TP850 (peptide)
peptide: H[Aib]QGTFTSDKSKYLD[Aib]RAAQDFVKWL[Met(O2)]ETK(γGlu)-NH2
modifications: lactam 24-28; not fully specified (residue 10); printed as HUQGTFTSDK(γEγEC16)SKYLDURAAQDFVK*WL2E*TKγE-NH2

Legend:
[1] = target: T1, human GCGR (Homo sapiens, UniProt P47871); test: cAMP activity assay, cells expressing human GCGR; assay type: cell-based; conditions: ratio of human GCGR EC50 to human GLP1R EC50
T1 construct: expressed in transfected cells
T1 sequence (P47871 26-477): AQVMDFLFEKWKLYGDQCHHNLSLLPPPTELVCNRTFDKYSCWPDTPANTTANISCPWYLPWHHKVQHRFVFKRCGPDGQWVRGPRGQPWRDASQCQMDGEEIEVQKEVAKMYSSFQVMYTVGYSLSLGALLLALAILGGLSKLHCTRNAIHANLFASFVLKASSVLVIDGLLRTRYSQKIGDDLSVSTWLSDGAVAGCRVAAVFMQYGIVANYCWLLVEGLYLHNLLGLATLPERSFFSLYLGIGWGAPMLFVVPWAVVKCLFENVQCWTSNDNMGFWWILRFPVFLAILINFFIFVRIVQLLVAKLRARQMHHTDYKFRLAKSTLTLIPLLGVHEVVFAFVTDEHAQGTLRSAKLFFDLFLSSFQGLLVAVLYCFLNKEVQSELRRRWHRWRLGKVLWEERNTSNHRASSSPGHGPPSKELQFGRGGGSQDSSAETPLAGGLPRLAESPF
Procedure: Activity of the peptides at the Glucagon receptor (GCGR) and GLP-1 receptor (GLP1R) was measured in a cAMP activity assay. Peptides were dissolved in 100% DMSO and serially diluted to generate 10 point titrations. The peptide solutions were then transferred into 384-well assay plates (150 nL/well). Assay ready frozen cells expressing human GLP1R or human GCGR were suspended in growth media consisting of DMEM medium (GIBCO), 10% FBS (GIBCO), 1×NEAA(GIBCO), 1×P/S (GIBCO), 10 ug/ml Blasticidin (GIBCO) and 200 μg/mL Hygromycin (GIBCO). […] The cell suspensions (15 μL) were then added to the assay plates containing the peptide solutions (30,000 cells/well for human GCGR; 10,000 cells/well for human GLP1R). […] Production of cAMP was determined using […] kits (DiscoverX) following manufacturer protocol. The plates were incubated for overnight at room temperature in the dark. Luminescence was measured using an EnVision Multilabel plate reader (Perkin Elmer). Native GLP-1 and Glucagon (Bachem) are used as control peptides.

[2] = target: human Glucagon receptor (GCGR) (human, UniProt P47871); test: cell-based or functional assay
[3] = target: human GLP-1 receptor (GLP1R) (human, UniProt P43220); test: cell-based or functional assay

Row | Molecule | hGCGR/hGLPIR (hTone) [1] | GCGR EC50 human (nM), cAMP activity assay [2] [nM] | GLP1R EC50 human (nM), cAMP activity assay [3] [nM]
1 | CCCCCCCCCCCCCCCC(=O)N[C@@H](CCC(=O)N[C@@H](CCC(=O)NCCCC[C@H](NC(=O)[C@H](CC(=O)O)NC(=O)[C@H](CO)NC(=O)[C@@H](NC(=O)[C@H](Cc1ccccc1)NC(=O)[C@@H](NC(=O)CNC(=O)[C@H](CCC(N)=O)NC(=O)C(C)(C)NC(=O)[C@@H](N)Cc1c[nH]cn1)[C@@H](C)O)[C@@H](C)O)C(=O)N[C@@H](CO)C(=O)N[C@@H](CCCCN)C(=O)N[C@@H](Cc1ccc(O)cc1)C(=O)N[C@@H](CC(C)C)C(=O)N[C@@H](CC(=O)O)C(=O)NC(C)(C)C(=O)N[C@@H](CCCNC(=N)N)C(=O)N[C@@H](C)C(=O)N[C@@H](C)C(=O)N[C@@H](CCC(N)=O)C(=O)N[C@@H](CC(=O)O)C(=O)N[C@@H](Cc1ccccc1)C(=O)N[C@H](C(=O)N[C@H]1CCCCNC(=O)CC[C@@H](C(=O)N[C@H](C(N)=O)[C@@H](C)O)NC(=O)[C@H](CCCC)NC(=O)[C@H](CC(C)C)NC(=O)[C@H](Cc2c[nH]c3ccccc23)NC1=O)C(C)C)C(=O)O)C(=O)O [SEQ ID NO: 17] (H-H[Aib]QGTFTSDK([γGlu-γGlu-Palmitoyl])SKYLD[Aib]RAAQDFVKWL[Nle]ET-NH2; lactam 24-28; N-terminus assumed) | 1.05 |  | 
2 | B1 |  | 0.281 | 0.198
3 | B2 |  | 0.06 | 0.07
4 | B3 |  | 0.089 | 0.107
5 | H[dS]QGTFTSEK([γGlu-γGlu-C16 fatty acid])SKKLD[Aib]RAAQDFVQWLLATK(γGlu)-NH2 (lactam 9-13) [TP115] |  | 0.81 | 1.03
6 | H[Aib]QGTFTSDKSKYLD[Ac4c]RAAQDFVKWL[Met(O2)]ETK(γGlu)-NH2 (lactam 24-28; not fully specified (residue 10)) [TP861] |  | 0.928 | 0.056
7 | B4 |  | 0.04 | 0.12
8 | B5 |  | 0.079 | 0.044
9 | B6 |  | 0.077 | 0.137
10 | H[Aib]QGTFTSDKSKYLD[Ac4c]KAAQEFVQWL[Met(O2)]DTK(γGlu)-NH2 (lactam 17-21; not fully specified (residue 10)) [TP857] |  | 0.092 | 0.038
11 | B7 |  | 0.212 | 0.17
12 | B8 |  | 0.248 | 0.237
13 | B9 |  | 0.05 | 0.14
14 | B10 |  | 0.176 | 0.147
15 | B11 |  | 0.1 | 0.17
16 | B12 |  | 0.675 | 0.259
17 | B13 |  | 0.046 | 0.022
18 | B14 |  | 0.06 | 0.29
19 | B15 |  | 0.034 | 0.033
20 | H[Aib]QGTFTSDKSKYLD[Ac4c]RAAKDFVEWL[Met(O2)]DTK(γGlu)-NH2 (lactam 20-24; not fully specified (residue 10)) [TP859] |  | 0.108 | 0.043
